# Measured values reported in paper doi:10.1101/2024.02.01.578502 (bioRxiv, 2024).
# Tests used:
# Experiment in all cases: cryo-EM structure
# [1] = target: dihydrolipoyl transacetylase (E2) (porcine (endogenous in porcine heart mitochondria))
# [2] = target: dihydrolipoamide dehydrogenase-binding protein (E3BP) (porcine (endogenous in porcine heart mitochondria))
# cryo-EM structure = target: the molecule itself
# Chain of pyruvate dehydrogenase (E1) α2β2 heterotetramer (P29804 whole entry, looked up, one chain of several): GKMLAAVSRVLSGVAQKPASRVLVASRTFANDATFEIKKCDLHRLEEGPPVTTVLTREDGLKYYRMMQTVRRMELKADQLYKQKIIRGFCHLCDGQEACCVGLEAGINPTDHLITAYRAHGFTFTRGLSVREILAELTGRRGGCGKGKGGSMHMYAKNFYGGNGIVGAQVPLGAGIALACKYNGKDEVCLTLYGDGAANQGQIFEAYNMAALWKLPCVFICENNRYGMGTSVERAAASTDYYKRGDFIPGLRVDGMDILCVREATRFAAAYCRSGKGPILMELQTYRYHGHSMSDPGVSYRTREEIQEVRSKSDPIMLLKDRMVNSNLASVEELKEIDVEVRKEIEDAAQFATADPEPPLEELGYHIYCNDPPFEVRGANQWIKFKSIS
molecule,measurement,setting,value
dihydrolipoyl transacetylase (E2) (enzyme),stoichiometry N,[1],60
pyruvate dehydrogenase (E1) α2β2 heterotetramer (from UniProt P29804 31-390) (complex),"N, LD per E1 heterotetramer",[1],1
same,"N, PSBD per E1 heterotetramer",[1],1
same,percent of E1 heterotetramers with additional density (LD),[1],82%
same,ratio of E1 with LD bound to E1 without LD bound,[1],4.5 times
"dihydrolipoyl dehydrogenase (E3) dimer (enzyme, UniProt P09623 36-509, looked up) ADQPIDADVTVIGSGPGGYVAAIKAAQLGFKTVCIEKNETLGGTCLNVGCIPSKALLNNSHYYHMAHGKDFASRGIEMSEVRLNLEKMMEQKSNAVKALTGGIAHLFKQNKVVRVNGYGKITGKNQVTATKADGSTEVINTKNILIATGSEVTPFPGITIDEDTVVSSTGALSLKKVPEKMVVIGAGVIGVELGSVWQRLGADVTAVELLGHVGGIGIDMEVSKNFQRILQKQGFKFKLNTKVIGATKKSDGNIDVSIEAASGGKAEVITCDVLLVCIGRRPFTQNLGLEELGIELDPRGRIPVNTRFQTKIPNIYAIGDVVAGPMLAHKAEDEGIICVEGMAGGAVHIDYNCVPSVIYTHPEVAWVGKSEEQLKEEGIEYKVGKFPFAANSRAKTNADTDGMVKILGQKSTDRVLGAHIIGPGAGEMINEAALALEYGASCEDIARVCHAHPTLSEAFREANLAASFGKAINF",stoichiometry N,[2],1
same,stoichiometry N,cryo-EM structure,2
